Test results as given in patent US20030082736A1 (IMMUNEX, published 2003).

Target: T1, TNF (125I-TNF) (human, UniProt P01375 77-233, limits assumed, radioiodinated (125I) where used as labeled ligand)
T1 construct: It may be the same FLAG-TNFα as m1; also called 125I-labeled TNF
Test: TNF binding assay on product of transfected COS-7 cells

T1 sequence (P01375 77-233 limits assumed): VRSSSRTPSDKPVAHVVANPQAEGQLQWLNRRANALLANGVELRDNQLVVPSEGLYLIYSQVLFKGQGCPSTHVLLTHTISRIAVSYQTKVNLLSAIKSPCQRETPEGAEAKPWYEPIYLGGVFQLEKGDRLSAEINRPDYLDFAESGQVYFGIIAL

binding result: no binding
B1: soluble huTNF-RΔ142 (receptor)
chain: LPAQVAFTPYAPEPGSTCRLREYYDQTAQMCCSKCSPGQHAKVFCTKTSDTVCDSCEDSTYTQLWNWVPECLSCGSRCSSDQVETQACTREQNRICTCRPGWYCALSKQEGCRLCAPLRKCRPGFGVARPGTETSDVVCKPC
notes: Transfected into COS-7 cells; also called huTNF-R?142; product of psolTNFRΔ142/CAVNOT
